According to patent publication US20150056222A1 (Regeneron, published 2015):
Positions count from the first letter of the chain named. Numbers in names are those of the source.

T1: human prolactin receptor (PRLR) on cells (human, UniProt P16471 25-622)
T1 construct: T47D, T47D#11 and MCF7 carry the endogenous receptor; also called hPRLR; HEK293/hPRLR
T1 sequence: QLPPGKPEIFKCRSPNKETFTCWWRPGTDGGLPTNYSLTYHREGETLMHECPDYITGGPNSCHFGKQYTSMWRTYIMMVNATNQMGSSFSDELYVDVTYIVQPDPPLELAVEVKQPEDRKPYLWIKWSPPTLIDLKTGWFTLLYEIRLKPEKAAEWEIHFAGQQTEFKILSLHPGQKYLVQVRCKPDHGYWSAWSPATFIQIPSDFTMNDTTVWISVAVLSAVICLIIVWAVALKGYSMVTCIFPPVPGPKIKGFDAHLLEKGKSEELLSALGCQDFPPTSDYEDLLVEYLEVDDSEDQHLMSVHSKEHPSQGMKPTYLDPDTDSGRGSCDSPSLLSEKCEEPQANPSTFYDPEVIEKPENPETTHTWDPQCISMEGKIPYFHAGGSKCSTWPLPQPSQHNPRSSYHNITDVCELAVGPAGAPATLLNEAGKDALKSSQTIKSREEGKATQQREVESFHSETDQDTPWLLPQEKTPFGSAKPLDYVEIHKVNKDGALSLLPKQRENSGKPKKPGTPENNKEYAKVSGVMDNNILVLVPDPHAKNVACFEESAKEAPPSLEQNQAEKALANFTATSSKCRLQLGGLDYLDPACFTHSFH

T2: monkey (macaca fascicularis) PRLR on HEK293 cells (macaca fascicularis, UniProt A0A2K5WXK1 25-619)
T2 construct: also called mfPRLR; HEK293/mfPRLR
T2 sequence: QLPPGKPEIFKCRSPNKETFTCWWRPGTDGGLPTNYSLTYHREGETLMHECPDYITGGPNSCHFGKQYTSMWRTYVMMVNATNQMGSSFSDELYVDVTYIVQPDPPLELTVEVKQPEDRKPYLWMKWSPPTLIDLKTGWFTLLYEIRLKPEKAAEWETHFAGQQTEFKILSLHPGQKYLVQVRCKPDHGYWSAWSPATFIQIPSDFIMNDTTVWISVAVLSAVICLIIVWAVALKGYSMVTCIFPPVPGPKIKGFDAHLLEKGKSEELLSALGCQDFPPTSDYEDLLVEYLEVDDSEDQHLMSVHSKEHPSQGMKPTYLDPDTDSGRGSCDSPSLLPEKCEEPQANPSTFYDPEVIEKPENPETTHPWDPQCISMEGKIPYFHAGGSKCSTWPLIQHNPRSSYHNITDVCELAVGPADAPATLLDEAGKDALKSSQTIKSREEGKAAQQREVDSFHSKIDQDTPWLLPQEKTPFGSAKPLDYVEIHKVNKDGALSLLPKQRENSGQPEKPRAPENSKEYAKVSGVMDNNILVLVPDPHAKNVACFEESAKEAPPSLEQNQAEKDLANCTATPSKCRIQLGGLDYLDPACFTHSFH

T3: mouse PRLR on HEK293 cells (mouse, UniProt Q08501 20-608)
T3 construct: whole, on cells; also called mPRLR; HEK293/mPRLR
T3 sequence (looked up): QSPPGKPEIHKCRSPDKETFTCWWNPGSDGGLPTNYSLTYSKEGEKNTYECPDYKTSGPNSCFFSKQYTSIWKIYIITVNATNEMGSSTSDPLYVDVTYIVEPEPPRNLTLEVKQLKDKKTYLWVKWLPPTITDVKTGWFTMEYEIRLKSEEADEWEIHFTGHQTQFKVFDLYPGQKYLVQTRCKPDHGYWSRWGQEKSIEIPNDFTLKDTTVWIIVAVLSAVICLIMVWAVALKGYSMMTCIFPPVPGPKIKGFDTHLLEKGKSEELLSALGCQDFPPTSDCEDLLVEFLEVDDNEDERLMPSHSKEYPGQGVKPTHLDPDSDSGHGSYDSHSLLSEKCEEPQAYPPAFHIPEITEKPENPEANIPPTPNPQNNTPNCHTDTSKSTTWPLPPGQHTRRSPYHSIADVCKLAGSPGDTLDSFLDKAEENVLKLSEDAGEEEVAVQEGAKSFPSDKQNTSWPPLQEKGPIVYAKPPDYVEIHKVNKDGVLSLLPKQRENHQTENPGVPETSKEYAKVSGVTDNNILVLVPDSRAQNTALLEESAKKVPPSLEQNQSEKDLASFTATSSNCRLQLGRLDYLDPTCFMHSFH

T4: hPRLR.mFc (soluble dimeric human PRLR) (human)
T4 construct: dimeric construct
T4 chain: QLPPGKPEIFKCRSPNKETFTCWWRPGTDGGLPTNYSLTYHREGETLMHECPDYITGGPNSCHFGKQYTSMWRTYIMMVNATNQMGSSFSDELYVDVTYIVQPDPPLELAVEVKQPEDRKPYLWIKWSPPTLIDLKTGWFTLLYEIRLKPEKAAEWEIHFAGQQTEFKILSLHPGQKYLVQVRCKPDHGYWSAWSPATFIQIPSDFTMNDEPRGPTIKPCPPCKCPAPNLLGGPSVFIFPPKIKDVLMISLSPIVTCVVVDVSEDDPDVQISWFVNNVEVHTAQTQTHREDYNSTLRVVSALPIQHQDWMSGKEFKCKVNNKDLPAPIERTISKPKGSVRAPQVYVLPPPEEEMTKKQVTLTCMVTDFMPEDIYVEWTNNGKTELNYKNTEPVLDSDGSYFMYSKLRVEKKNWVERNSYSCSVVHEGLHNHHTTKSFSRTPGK

T5: hPRLR.mmh (soluble monomeric human PRLR) (human)
T5 construct: soluble monomeric construct
T5 chain: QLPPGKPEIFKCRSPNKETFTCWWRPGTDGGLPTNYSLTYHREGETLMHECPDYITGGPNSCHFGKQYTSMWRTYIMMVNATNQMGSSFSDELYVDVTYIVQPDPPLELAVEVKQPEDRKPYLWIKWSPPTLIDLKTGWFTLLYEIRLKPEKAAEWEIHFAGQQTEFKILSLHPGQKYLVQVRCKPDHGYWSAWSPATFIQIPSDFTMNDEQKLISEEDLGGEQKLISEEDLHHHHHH

T6: mfPRLR.mmh (soluble monomeric macaca fascicularis PRLR) (macaca fascicularis)
T6 construct: soluble monomeric construct; also called macaca fascicularis (mf) PRLR.mmh
T6 chain: T5 chain with I76V, A110T, I125M, I158T, T207I

B1: H1H6953N (antibody, human IgG1, V domains shown)
VH: EVQLLESGGGLVQPGGTLRLSCAASGFTFSAYAMSWVRQAPGKGLEWVSSINVRAGDTYYADSVKGRFTISRDNSKNTLFLLMNSLRAEDTAAYYCAKARYSSNWGFDFWGQGTLVTVSS
VL: DIVMTQSPDSLTVSLGARTTINCQSSQTILHSSNNHNYLAWYQQKPGLPPKLLIYWSSTRESGVPDRFSGSGSGTDFTLTISSLQAEDVAIYYCQQYSNTPYTFGQGTKLEIN
notes: also called H1M6953N
B2: H1H6795P (antibody, human IgG1, V domains shown)
VH: QVQLVQSGAEVKKPGASVKVSCKASGYTFGTSGITWVRQAPGQGLEWMGWSSAYNGKTDYAQKFQDRVTMTTDTSTTTGYMEMRSLTSDDTAVYYCTTVVRRPFDFWGQGTLVTVSS
VL: DIQMTQSPSSLSASVGDRVTITCRASQDINNFLAWFQQKPGKAPKSLIYAASSLQSGVPSKFSGGGSGTDFALTISSLQPEDFATYYCQQYSSYPITFGQGTRLEIK
notes: human IgG1 Fc (H1H)
B3: H1H6807P (antibody, V domains shown)
VH: QVQLVESGGGVVQPGRSLRLSCAASGFTFSDYNMHWVRQAPGKGLEWVAVIWYDGSNKHYADSVKGRFTISRDNSKNTLYLQMNSLRAEDTAVYYCARDGFTIFGMVLDYWGQGTLVTVSS
VL: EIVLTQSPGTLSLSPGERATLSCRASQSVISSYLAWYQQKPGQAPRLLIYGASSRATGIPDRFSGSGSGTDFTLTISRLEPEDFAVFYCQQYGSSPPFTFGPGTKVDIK
notes: human IgG1 Fc (H1H)
B4: H1H6790P (antibody, human IgG1, V domains shown)
VH: EVQLVESGGGLVQPGGSLRLSCAASGFTFSSYAMTWVRQAPGKGLEWVSAITGSVGNTYYADSVKGRFTISRDNSKNTLYLQMNSLGAEDTAEYYCAKGAGMTTNWYLDLWGRGTLVTVSS
VL: DIVMTQSPDSLAVSLGARATINCKSSQSVLYSSNNQNYLTWYQQKPGQPPKLLIKWASTRESGVPDRFSGSGSGTDFTLTISSLQAEDVAVYYCQQYASSPYTFGQGTKLEIK
notes: human IgG1 Fc (H1H)
B5: H1H6797P (antibody, human IgG1, V domains shown)
VH: EVQLVESGGGLVQPGGSLRLSCIVSGFTFSGSWMSWVRQLPGKGLEWVANIKEDGSDSYYVDSVEGRFTISRDNAKSSLYLQMNSLRVDDTAVYFCARARTVPLHYWGQGTLVTVSS
VL: DIQMTQSPSTLSASVGDRVTITCRASQSINIWLAWYQQKPGKAPKLLIYRASYLESGVPSSFAGGGSGTEFTLTISSLQPDDFGTYYCQHYNSYPFTFGQGTKLEIK
notes: human IgG1 Fc (H1H)
B6: H1H6804P (antibody, human IgG1, V domains shown)
VH: QVTLKESGPVLVKPTQTLSLTCTVSGFSLSDAGMGVSWIRQPPGKALEWLAHIFSNDGKSYSTSLKSRLTISKDTSKRQVVLTMTNMDPVDTATYYCARIRTGTYSLYLDYWGQGTLVTVSS
VL: DIQMTQSPSSLSASVGDRVTITCRASQSINSYLNWYQQKPGKAPKLLLYFASSLQSGVPSRFSGSGSGTDFTLTISSLQPEDFASYYCQESYSTPWTFGQGTKVEIK
notes: human IgG1 Fc (H1H)
B7: H1H6966N (antibody, human IgG1, V domains shown)
VH: QVQLVQSGAEVQKPGASVKVSCKVSGYTLTALSIHWVRQAPGKGLEWMGNFDPGDGETIHAQKFQGRVTMTGDTSTDTAYMELSSLRSEDTAVYYCVGVTFDYWGQGTLVTVSS
VL: EIVMTQSPATLSVSPGERATLSCRASQSVASNLAWYQQKPGQAPRLLLYGASTRATGIPARFSGSGSGTEFTLTISSLQSEDFALYYCQHYNNWPLTFGGGTKVEIK
notes: also called H2M6966N

target: T1, human prolactin receptor (PRLR) on cells; test: FACS, HEK293/hPRLR cells; note: test concentration or dose not given here

Point of comparison: B7, “FACS Cell Binding (Fold Above Background)” value 29 fold above background. Against it:
- B1 — higher, 37 fold above background
- B2 — lower, 1 fold above background
- B3 — higher, 32 fold above background
- B4 — higher, 37 fold above background
- B5 — lower, 1 fold above background
- B6 — lower, 1 fold above background

target: T2, monkey (macaca fascicularis) PRLR on …; test: FACS, HEK293/mfPRLR cells; note: test concentration or dose not given here

Point of comparison: B3, “FACS Cell Binding (Fold Above Background)” value 27 fold above background. Against it:
- B1 — higher, 29 fold above background
- B2 — lower, 22 fold above background
- B4 — lower, 24 fold above background
- B5 — lower, 25 fold above background
- B6 — higher, 29 fold above background
- B7 — lower, 18 fold above background

target: T1, human prolactin receptor (PRLR) on cells; test: cell-based or functional assay

Point of comparison: B7, “% Internalization relative to Control I (alexa488 intensity in intracellular vesicles at 37 C, T47D cells)” value 137%. Against it:
- B1 — higher, 154%
- B2 — higher, 151%
- B3 — higher, 147%
- B4 — higher, 147%
- B5 — higher, 145%
- B6 — higher, 139%

target: T3, mouse PRLR on HEK293 cells; test: FACS, HEK293/mPRLR cells; note: test concentration or dose not given here

Point of comparison: B3, “FACS Cell Binding (Fold Above Background)” value 2 fold above background. Against it:
- B1 — the same, 2 fold above background
- B2 — lower, 1 fold above background
- B4 — lower, 1 fold above background
- B5 — the same, 2 fold above background
- B6 — lower, 1 fold above background
- B7 — lower, 1 fold above background

target: T1, human prolactin receptor (PRLR) on cells; test: FACS, T47D cells (native PRLR); note: test concentration or dose not given here

Point of comparison: B7, “FACS Cell Binding (Fold Above Background)” value 31 fold above background. Against it:
- B1 — higher, 40 fold above background
- B2 — higher, 34 fold above background
- B3 — higher, 34 fold above background
- B4 — higher, 34 fold above background
- B5 — higher, 38 fold above background
- B6 — higher, 34 fold above background

Target: T4, hPRLR.mFc (soluble dimeric human PRLR)
Test: SPR, 37C, mAb capture
Description: (§1) Measurements were conducted on a T200 Biacore instrument. Kinetic association (kₐ) and dissociation (kd) rate constants were determined by processing and fitting the data to a 1:1 binding model using Scrubber 2.0 curve fitting software. Binding dissociation equilibrium constants (KD) and dissociative half-lives (t_{1/2}) were calculated from the kinetic rate constants as: KD (M)=kd/kₐ; and […].

Point of comparison: B1, T½ 68 min. Against it:
- B2 — 2.2-fold higher, 149 min
- B3 — 1.5-fold higher, 105 min
- B4 — within 1.5-fold, 58 min
- B5 — within 1.5-fold, 93 min
- B6 — within 1.5-fold, 56 min
- B7 — within 1.5-fold, 91.3 min

Target: T5, hPRLR.mmh (soluble monomeric human PRLR)
Test: SPR, 37C, mAb capture
Description: as §1

Point of comparison: B1, T½ 9.4 min. Against it:
- B2 — 4.7-fold lower, 2 min
- B3 — 3.6-fold higher, 34 min
- B4 — 2.4-fold lower, 4 min
- B5 — 9.4-fold lower, 1 min
- B6 — 3.1-fold lower, 3 min
- B7 — within 1.5-fold, 12 min

Target: T6, mfPRLR.mmh (soluble monomeric macaca …)
Test: SPR, 37C, mAb capture
Description: as §1

Point of comparison: B1, T½ 4.5 min. Against it:
- B2 — 2.2-fold lower, 2 min
- B3 — 7.1-fold higher, 32 min
- B4 — within 1.5-fold, 4 min
- B5 — 4.5-fold lower, 1 min
- B6 — 1.5-fold lower, 3 min
- B7 — 2.1-fold higher, 9.6 min
